Test results from the supplement of paper PMC12764529.
± gives the half width of the 95% confidence interval.

assay: folding stability dG unfold (combined trypsin and chymotrypsin); higher = more stable
Procedure, shortened: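 Unfolding free energy was derived, per protease or combined, against a sequence-predicted unfolded-state K50 and a shared folded-state K50, starting from K50 inferred by Bayesian fitting of sequencing counts. Digestion with trypsin and chymotrypsin was carried out on designed mini-proteins under 80 residues without cysteine in a PA-tagged cDNA display construct. Only designs with AlphaFold2 dimer inter-PAE above 15 were kept.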

| Sequence | folding stability dG unfold [kcal/mol] |
| --- | --- |
| SAGGSATIEEIAQEIADNLPPGRKYRAKIYYDGEERTYEFRNPNGFKINITWKNGKIRSIDIEPRPSAGGSA [r15_175_TrROS] | 1.94 ± 0.17 |
| SMIKIKLKNGMEITIEKTPEKVKIKLKATGKEIELPLEELENMTEEELLEKLRKLAEELGMEVEEVEIEPSA [r9_1211_TrROS_Hall] | 3.38 ± 0.11 |
| SAGGMNVSYLFSKSVPKEEIEAYLKKLDPNKKYKFEELEPEEIEKLPESIEVIEKPVDETLRLVLVEESAGG [r13_649_JUSTAS] | 0.473 ± 0.12 |
| SAGGSAGGKKEIKIYLVSDLPEEDAIETAEKIKKGLAEELGVSPEELNITVEVAILDPENLELNPESAGGSA [r15_918_TrMRF] | 0.1 ± 0.15 |
| SAGGSAGGSAMLENARPFPIDLPTKYRLRIVLPDGRVLELEYDPKSGVPRLRVVPVEEALKRSAGGSAGGSA [r18_247_TrMRF] | 1.46 ± 0.036 |
| SAGGPPWVRVVDVRIEPVEDGGERRITLTFPPDVTLEEVRERVREMLPPGAEAELTVERVEVRPVLASAGGS [r16_393_JUSTAS] | 1.49 ± 0.04 |
| SAGGSAGGSAKKVKIEEKDGELTITVEPGEKVLIVYPDGTVEEVEVKEGDTITLPPGAKVLPSAGGSAGGSA [r18_452_TrROS_Hall] | 1.33 ± 0.24 |
| SAGMVEVTVTIIPKKVKDKWVNEAVVSITVPGGPTSTITMPFGSKEEAIKYLKEKGLEVSEENVSVEIESAG [r5_233_JUSTAS] | 3.23 ± 0.097 |
| SAMEVIELEFPSVEELEAALKEKFNVEVEKLPDGTKRIKVEVDGELVLIEITDDKVRIRIISKEELEKLSAG [r14_402_TrROS_Hall] | 2.42 ± 0.13 |
| SMYVIETSANKTYTVNVPPDGLVTITYPDGSTETRKFTSEEDLEAFAEELSKKYPDAPATIKPVPLEELGSA [r9_1206_JUSTAS] | 0.959 ± 0.25 |
| SAGGSAPDWKIVDIEPTDNSITITVEAPPGVRVMIFNPGNGKVQHRPFPPGDTITIPPRMYIMVWVSAGGSA [r15_418_TrROS] | 2.84 ± 0.081 |
| SAGPKVKLIKAEFFPDGRLVVYAEVESSNGEPAFAVGVFDPRNPNKAHVKVYNPSTGKVSEFEVTVTPGSAG [r5_345_TrMRF] | 3 ± 0.035 |
| SAGGSKKVKIKITKIEIFPNGTIKVTVKNEDGSEVTITITKNKDGKYKIKIKNKKTKKIFEFEIPLSAGGSA [r2_361_TrROS_Hall] | 2.8 ± 0.22 |
| SAGGSAGGSAGGLPEDDNYVRVKITFTIMMMEFDPKNGKMQMFPISIEIEIYIPPGAELSAGGSAGGSAGGS [r10_133_TrROS] | 3.26 ± 0.22 |
| SAGGSFDPVEITTLEDGTIKILAKDPNTNKLFITTLKAKSIKTSSLGNGKTITTIPHEKVEESEELPSAGGS [r16_615_JUSTAS] | -0.554 ± 0.67 |
| SAGDSVVIPFRLPPENLSPEELLEWIIDEVKEAAKAGLPHKVTIQVPYPGKPWYITIDPKNGEIEIVPSAGG [r19_204_TrROS] | 1.52 ± 0.15 |

| Sequence | folding stability dG unfold [kcal/mol] |
| --- | --- |
| SAGGSAGGSASEIMDEFPNLEIDNVNPDHGMMIIKWPDGWYWRVNVGNGEIEPVSPEDLEDMSAGGSAGGSA [r18_381_TrROS] | 0.828 ± 0.18 |
| SAGGSAGGSSLEEIAKKLGLKPGMRVRLSDGKVLEVPSLDDLKAALEAGLSLEELKKIEIEPVSAGGSAGGS [r12_430_TrROS_Hall] | 1.42 ± 0.12 |
| SAGGSAGGSAGEVEFELTVKLTVTHPSGGKSEIEVPVKITLPVVDISKEILESNPEVVKKANSAGGSAGGSA [r18_114_TrMRF] | -0.108 ± 0.3 |
| SAGMGSDVPVLTAVLSVLNPETGEEVTIEVPGRNDYGEGKLIRPVSPEDLLAAALAVADALLKDPSLKASAG [r5_426_TrMRF] | 0.804 ± 0.11 |
| SPNMQPVEMEFKIKVPGKPVDIKIEMWRMPDGQTRMDIRYPDGRSIMFNPSNGSIKIYDPKDGKPLAEISSA [r9_970_TrROS] | 1.38 ± 0.16 |
| SAGGKKKKLVIKDKKTNKYYEIENAKEIVKIEKVKGKDGKTYYVIYFKKTKKKIVIKTKEDLEKALKSAGGS [r8_206_TrROS_Hall] | 1.23 ± 0.29 |
| SAGGSSSLSGLKNVTEEPRLAPDSDEEEVLITYENGYLERREPGVLEFYDPENGKVLSKKNVPYHHSAGGSA [r2_374_JUSTAS] | -0.326 ± 0.3 |
| SAMTIEEAIEKGKIGAIVKVEVELPNGGKIEIEIFIESESLEEALEKIKAFFEALNLKVKIIEVKVFPVSAG [r14_854_TrMRF] | 3.09 ± 0.36 |
| SAGGSAMLPDEVTVKPVEMPVPPDLTLEELEQEVRERAGPGTSVEVSYDPATGVATVTVTDARPALSAGGSA [r15_749_JUSTAS] | 1.03 ± 0.04 |
| SAGTELELEAEAEVLFPELGTRARVRVRARVRPTEDEVEVELEVEAEFEPLPLVPPIVSPEENPELAEGSAG [r14_435_TrMRF] | 3.08 ± 0.17 |
| SAGGSASIGEELAKELFPDLPLKVEPKEVPLEDGKTETVVTATFPDGKKVTITFEGDKIVEVTEVESAGGSA [r15_417_JUSTAS] | 0.718 ± 0.11 |
| SAGGSAGGSKTIEIVVPPNTTPEEIAKKLKELFPDAKITSVEVYVDKKTKKIVYVKVKIEVKPSAGGSAGGS [r12_822_TrROS_Hall] | 3.46 ± 0.087 |
| KPKIKITITFNKETGKITITAVNKDNNVVVKTEFELKDGKLTMKIEVKNKKTNKTYTIEIEIKLLKPGEKLS [r1_404_TrROS_Hall] | 3.86 ± 0.32 |
| SAGGSAGGSAGGSTILILDPETKKLYLIRIEKREDGKEELKLKVYEFDLKTGEMKEYELSAGGSAGGSAGGS [r10_1041_TrROS_Hall] | 4.15 ± 0.19 |
| SAGGSAGGSASVVADENKIVVTFPNGKVVELDLSDPKKAKEKLLALKPLDIPPITLELVPPASAGGSAGGSA [r18_68_JUSTAS] | 0.572 ± 0.12 |
